Measurements reported in patent US20230192797A1 (published 2023).

Columns and labels:
[1] = target: T1, PD-L1 on the surface of CHO-PD-L1 cells (UniProt Q9NZQ7 19-290, limits assumed); assay: cell-based or functional assay
[2] = target: T1, PD-L1 on the surface of CHO-PD-L1 cells; assay: flow cytometry (FACS) on CHO-PD-L1 cells, anti-human IgG PE detection
[3] = target: T2, recombinant human PD-L1-His protein (Novoprotein, Cat. 315) (human, UniProt Q9NZQ7 19-239); assay: SPR (Biacore T200), antibody captured on the chip, PD-L1-His injected, 1:1 model, 25 C
T2 construct: Bought reagent; also called human PD-L1 recombinant protein; not shown: His tag
T2 sequence (Q9NZQ7 19-239 limits assumed): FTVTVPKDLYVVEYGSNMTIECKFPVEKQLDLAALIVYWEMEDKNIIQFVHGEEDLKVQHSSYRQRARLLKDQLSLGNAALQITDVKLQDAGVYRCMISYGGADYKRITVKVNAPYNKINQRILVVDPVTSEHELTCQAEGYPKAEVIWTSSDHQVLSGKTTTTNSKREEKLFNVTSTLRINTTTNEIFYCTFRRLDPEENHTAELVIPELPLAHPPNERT

[4] = target: T3, cynomolgus monkey PD-L1-His protein (Sino Biological, Cat. 90251-C08H) (cynomolgus monkey, UniProt G7PSE7 19-239); assay: as above
T3 construct: Bought reagent; also called cynomolgus PD-L1 recombinant protein; not shown: His tag
T3 sequence (G7PSE7 entry or part of it C08H C08H): as the sequence (Q9NZQ7 19-239 limits assumed) above, with A33T, A34S, S62N, R68Q, Q82R, F173L, T185A, T192I, H215L counted along it

[5] = target: T4, Human PD-L1 recombinant protein (Sino Biological, Cat.10084-H05H) (human, UniProt Q9NZQ7 19-239); assay: competitive ELISA: human PD-L1 coated, antibody titrated against human PD-1-His (competitor), anti-His-HRP detection
T4 construct: also called human PD-L1 protein; PD-L1 protein
T4 sequence (Q9NZQ7 19-239 limits assumed): as the sequence (Q9NZQ7 19-239 limits assumed) above
Method: Human PD-L1 recombinant protein (Sino Biological, Cat.10084-H05H) was diluted with carbonate buffer and added to 96-well ELISA plate at a final concentration of 1 μg/ml. […] The competitive binding curve of the tested antibody could be drawn by matching the antibody concentration to the OD value, and the IC50 value could be calculated.

T1 sequence (Q9NZQ7 19-290 limits assumed): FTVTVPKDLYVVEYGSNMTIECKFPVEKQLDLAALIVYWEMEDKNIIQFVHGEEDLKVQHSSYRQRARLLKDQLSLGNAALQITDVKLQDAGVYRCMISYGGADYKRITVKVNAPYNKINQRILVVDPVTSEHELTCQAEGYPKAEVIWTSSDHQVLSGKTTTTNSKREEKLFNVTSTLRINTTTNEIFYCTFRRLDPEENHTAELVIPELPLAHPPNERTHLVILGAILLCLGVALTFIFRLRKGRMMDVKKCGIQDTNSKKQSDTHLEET

EC50 of NFAT-controlled luminescent reporter signal (RLU), Jurkat-PD-1 cells co-incubated with CHO-PD-L1 cells [1]: 0.166 µg/mL | EC50 [2]: 0.0384 µg/mL | Kd [3]: 1.79 nM | Kd [4]: 0.937 nM | IC50 [5]: 0.849 nM
B1: 794-h1-71 (antibody, human IgG1, kappa, V domains shown)
VH: QVQLQQSGPGLVKPSQTLSLTCAVSGDSITSGYWNWIRKFPSRGLEYMGYISYSGSTYYNPFLKSRISINRDTSKNQYYLQLNSVTPEDTAVYYCAKMGDWLAWFAYWGQGTLVTVSS
VL: EIVMTQSPPTLSLSPGERVTLSCKSSQSLLYSSNQKNSLAWYQQKPGQAPRLLIYWASTRESGIPARFSGSGSGTDFTLTISSLQPEDFAVYYCQQYYGYPYTFGQGTKLEIKR
notes: also called humanized PD-L1 antibody
